From article PMC5383425, “Differential CLE peptide perception by plant receptors implicated from structural and functional analyses of TDIF-TDR interactions” (PLoS ONE, 2017) come the findings set out here.

Changes are numbered by the printed parent chain. Square brackets hold non-standard residues; d marks the D form. Ends that are not written are not given here. Hyp = O=C(O)[C@@H]1C[C@@H](O)CN1

Common to all, as to assay: ITC
For test [1], the target named is T1, ecdTDR F279/F281 double alanine mutant (Arabidopsis thaliana, UniProt Q9FII5 30-642, F279 to alanine | F281 to alanine).
T1 sequence: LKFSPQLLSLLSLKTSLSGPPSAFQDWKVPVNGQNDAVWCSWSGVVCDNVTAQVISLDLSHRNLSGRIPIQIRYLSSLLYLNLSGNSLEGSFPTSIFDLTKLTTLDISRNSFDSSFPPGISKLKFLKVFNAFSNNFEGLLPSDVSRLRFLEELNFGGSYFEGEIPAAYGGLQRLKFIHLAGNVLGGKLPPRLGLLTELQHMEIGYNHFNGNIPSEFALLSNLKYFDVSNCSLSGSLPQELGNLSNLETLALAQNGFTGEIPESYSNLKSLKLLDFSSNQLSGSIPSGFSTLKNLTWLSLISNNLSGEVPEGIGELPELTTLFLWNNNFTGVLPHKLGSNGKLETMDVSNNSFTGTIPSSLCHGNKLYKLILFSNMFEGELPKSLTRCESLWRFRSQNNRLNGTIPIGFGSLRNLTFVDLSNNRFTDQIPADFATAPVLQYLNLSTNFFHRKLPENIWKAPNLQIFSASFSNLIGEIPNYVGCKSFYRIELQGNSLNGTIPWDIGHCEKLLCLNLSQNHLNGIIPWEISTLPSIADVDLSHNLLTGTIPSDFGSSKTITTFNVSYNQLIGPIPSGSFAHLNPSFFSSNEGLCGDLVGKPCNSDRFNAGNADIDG

For test [2], the target named is T2, ecdTDR mutant with all five N-terminal anchoring site-binding residues replaced by alanine (Arabidopsis thaliana, UniProt Q9FII5 30-642).
T2 chain: T1 sequence with R109A, F132A, S133A, S158A, Y159A, A250F, A252F

In the next test the target is T3, ecdTDR S305A mutant (Arabidopsis thaliana, UniProt Q9FII5 30-642, S305A).
T3 sequence: T1 sequence with A250F, A252F, S276A

Test [3] deals with T4, TDR-R421A/R423A double mutant (ecdTDR) (Arabidopsis thaliana, UniProt Q9FII5 30-642, R421A | R423A).
T4 sequence: T1 sequence with A250F, A252F, R392A, R394A

B1: Tracheary Element Differentiation Inhibitory Factor (TDIF) peptide (peptide)
peptide: HEV[Hyp]SG[Hyp]NPISN
notes: TDIF, the 12-residue CLE peptide processed from CLE41 and CLE44 of A. thaliana; printed as HEV(Hyp)SG(Hyp)NPISN; numbers count on: the 12-residue peptide; CLE44 encodes the same peptide; also called wild type TDIF; wtTDIF; source: synthetic peptide (peptide 2.0)
Take B1: the Kd in test [1] came out at 887 nM; in test [2], 3240 nM; with ecdTDR S305A mutant, 455 nM; in test [3] it was 306 nM.
